Patent publication US20170342144A1 (Sanofi, published 2017)

T1: human TGFβ2 (human, UniProt P61812 303-414)
T1 construct: also called TGFβ2 homodimer
T1 sequence: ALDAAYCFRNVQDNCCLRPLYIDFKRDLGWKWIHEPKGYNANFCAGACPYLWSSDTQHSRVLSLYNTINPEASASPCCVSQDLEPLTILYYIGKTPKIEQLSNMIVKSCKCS

T2: human TGFβ3 (human, UniProt P10600 301-412)
T2 sequence: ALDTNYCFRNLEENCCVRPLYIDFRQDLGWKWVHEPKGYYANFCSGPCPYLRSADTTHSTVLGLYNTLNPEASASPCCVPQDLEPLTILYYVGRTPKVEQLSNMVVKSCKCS


Columns and labels:
Experiment in all cases: Biacore off-rate vs wt GC1008, 50 nM
human TGFβ1 = molecular target: T3, human TGFβ1 (human, UniProt P01137 279-390)
T3 construct: also called TGFβ1 homodimer
T3 sequence (P01137 279-390 limits assumed): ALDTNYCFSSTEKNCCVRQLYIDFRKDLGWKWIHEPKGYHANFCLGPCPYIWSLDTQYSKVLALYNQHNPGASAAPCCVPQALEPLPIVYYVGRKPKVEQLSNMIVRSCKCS
From the text: (§1) Plasmids encoding either the GC1008 heavy chain or light chain were used as a template in PCR-based mutagenesis reactions. Mutations to the encoding DNA were made to create 155 single amino acid substitutions of the encoded heavy chain amino acid sequence and one single amino acid substitution of the encoded light chain amino acid sequence. A QuikChange® Lightning Site-Directed Mutagenesis kit (Agilent Technologies, Santa Clara Calif.) was used according to the manufacturer's instructions to create DNA mutations using a set of forward and reverse primers, either designed for a specific amino acid or for all 20 amino acids with a degenerate codon (NNK). After sequencing confirmation, identified mutant DNA was paired with a wild-type light or heavy chain DNA for transfection into an Expi293F™ host cell suspension (Life Techonologies Corp., Grand Island, N.Y.). At 4 days post-transfection, conditioned media (1 mL) was harvested and purified using a 1 mL Protein A PhyTip® column (PhyNexus, Inc., San Jose, Calif.) and a PureSpeed™ 12-channel pipette (Rainin Instrument LLC, Oakland, Calif.). Purified variant antibody samples were analyzed in duplicate on a Biacore® 3000 (GE Healthcare) at 50 nM concentrations, using the 100 RU level TGFβ1, 2, and 3 immobilized surfaces. The off-rate (kd) of the variants was divided by the kd of the wild-type control to obtain the fold change in the kd. […] A heat map was generated to visualize the results. Variants that completely lost affinity for TGFβ were shown in red without numbers.

human TGFβ2 = molecular target: T1, human TGFβ2
From the text: as §1

human TGFβ3 = molecular target: T2, human TGFβ3
From the text: as §1

kd var/kd wt (human TGFβ1)	kd var/kd wt (human TGFβ2)	kd var/kd wt (human TGFβ3)	Binder
1.6	1.3	1.7	N32L (antibody, V domains shown, GC1008 IgG4 variant) VH: QVQLVQSGAEVKKPGSSVKVSCKASGYTFSSLVISWVRQAPGQGLEWMGGVIPIVDIANYAQRFKGRVTITADESTSTTYMELSSLRSEDTAVYYCASTLGLVLDAMDYWGQGTLVTVSS VL: ETVLTQSPGTLSLSPGERATLSCRASQSLGSSYLAWYQQKPGQAPRLLIYGASSRAPGIPDRFSGSGSGTDFTLTISRLEPEDFAVYYCQQYADSPITFGQGTRLEIK
1.5	1.1	1.4	N32V (antibody, V domains shown, GC1008 IgG4 variant) VH: QVQLVQSGAEVKKPGSSVKVSCKASGYTFSSVVISWVRQAPGQGLEWMGGVIPIVDIANYAQRFKGRVTITADESTSTTYMELSSLRSEDTAVYYCASTLGLVLDAMDYWGQGTLVTVSS VL: ETVLTQSPGTLSLSPGERATLSCRASQSLGSSYLAWYQQKPGQAPRLLIYGASSRAPGIPDRFSGSGSGTDFTLTISRLEPEDFAVYYCQQYADSPITFGQGTRLEIK
2.4	1.1	1.5	N59R (antibody, V domains shown, GC1008 IgG4 variant) VH: QVQLVQSGAEVKKPGSSVKVSCKASGYTFSSNVISWVRQAPGQGLEWMGGVIPIVDIARYAQRFKGRVTITADESTSTTYMELSSLRSEDTAVYYCASTLGLVLDAMDYWGQGTLVTVSS VL: ETVLTQSPGTLSLSPGERATLSCRASQSLGSSYLAWYQQKPGQAPRLLIYGASSRAPGIPDRFSGSGSGTDFTLTISRLEPEDFAVYYCQQYADSPITFGQGTRLEIK
1.3	1.1	1.5	N59Y (antibody, V domains shown, GC1008 IgG4 variant) VH: QVQLVQSGAEVKKPGSSVKVSCKASGYTFSSNVISWVRQAPGQGLEWMGGVIPIVDIAYYAQRFKGRVTITADESTSTTYMELSSLRSEDTAVYYCASTLGLVLDAMDYWGQGTLVTVSS VL: ETVLTQSPGTLSLSPGERATLSCRASQSLGSSYLAWYQQKPGQAPRLLIYGASSRAPGIPDRFSGSGSGTDFTLTISRLEPEDFAVYYCQQYADSPITFGQGTRLEIK
2.3	1.2	1.7	N32R (antibody, V domains shown, GC1008 IgG4 variant) VH: QVQLVQSGAEVKKPGSSVKVSCKASGYTFSSRVISWVRQAPGQGLEWMGGVIPIVDIANYAQRFKGRVTITADESTSTTYMELSSLRSEDTAVYYCASTLGLVLDAMDYWGQGTLVTVSS VL: ETVLTQSPGTLSLSPGERATLSCRASQSLGSSYLAWYQQKPGQAPRLLIYGASSRAPGIPDRFSGSGSGTDFTLTISRLEPEDFAVYYCQQYADSPITFGQGTRLEIK
1.3	1.3	1.2	N32M (antibody, V domains shown, GC1008 IgG4 variant) VH: QVQLVQSGAEVKKPGSSVKVSCKASGYTFSSMVISWVRQAPGQGLEWMGGVIPIVDIANYAQRFKGRVTITADESTSTTYMELSSLRSEDTAVYYCASTLGLVLDAMDYWGQGTLVTVSS VL: ETVLTQSPGTLSLSPGERATLSCRASQSLGSSYLAWYQQKPGQAPRLLIYGASSRAPGIPDRFSGSGSGTDFTLTISRLEPEDFAVYYCQQYADSPITFGQGTRLEIK
1.4	1.2	1.1	S30D (antibody, V domains shown, GC1008 IgG4 variant) VH: QVQLVQSGAEVKKPGSSVKVSCKASGYTFDSNVISWVRQAPGQGLEWMGGVIPIVDIANYAQRFKGRVTITADESTSTTYMELSSLRSEDTAVYYCASTLGLVLDAMDYWGQGTLVTVSS VL: ETVLTQSPGTLSLSPGERATLSCRASQSLGSSYLAWYQQKPGQAPRLLIYGASSRAPGIPDRFSGSGSGTDFTLTISRLEPEDFAVYYCQQYADSPITFGQGTRLEIK
2.1	1.2	1.7	N32Y (antibody, V domains shown, GC1008 IgG4 variant) VH: QVQLVQSGAEVKKPGSSVKVSCKASGYTFSSYVISWVRQAPGQGLEWMGGVIPIVDIANYAQRFKGRVTITADESTSTTYMELSSLRSEDTAVYYCASTLGLVLDAMDYWGQGTLVTVSS VL: ETVLTQSPGTLSLSPGERATLSCRASQSLGSSYLAWYQQKPGQAPRLLIYGASSRAPGIPDRFSGSGSGTDFTLTISRLEPEDFAVYYCQQYADSPITFGQGTRLEIK
4.3	1.6	1.3	P53I (antibody, V domains shown, GC1008 IgG4 variant) VH: QVQLVQSGAEVKKPGSSVKVSCKASGYTFSSNVISWVRQAPGQGLEWMGGVIIIVDIANYAQRFKGRVTITADESTSTTYMELSSLRSEDTAVYYCASTLGLVLDAMDYWGQGTLVTVSS VL: ETVLTQSPGTLSLSPGERATLSCRASQSLGSSYLAWYQQKPGQAPRLLIYGASSRAPGIPDRFSGSGSGTDFTLTISRLEPEDFAVYYCQQYADSPITFGQGTRLEIK
1.2	1.1	1	S30C (antibody, V domains shown, GC1008 IgG4 variant) VH: QVQLVQSGAEVKKPGSSVKVSCKASGYTFCSNVISWVRQAPGQGLEWMGGVIPIVDIANYAQRFKGRVTITADESTSTTYMELSSLRSEDTAVYYCASTLGLVLDAMDYWGQGTLVTVSS VL: ETVLTQSPGTLSLSPGERATLSCRASQSLGSSYLAWYQQKPGQAPRLLIYGASSRAPGIPDRFSGSGSGTDFTLTISRLEPEDFAVYYCQQYADSPITFGQGTRLEIK
1	0.9	0.7	S30F (antibody, V domains shown, GC1008 IgG4 variant) VH: QVQLVQSGAEVKKPGSSVKVSCKASGYTFFSNVISWVRQAPGQGLEWMGGVIPIVDIANYAQRFKGRVTITADESTSTTYMELSSLRSEDTAVYYCASTLGLVLDAMDYWGQGTLVTVSS VL: ETVLTQSPGTLSLSPGERATLSCRASQSLGSSYLAWYQQKPGQAPRLLIYGASSRAPGIPDRFSGSGSGTDFTLTISRLEPEDFAVYYCQQYADSPITFGQGTRLEIK
1.5	1.2	1.1	N32T (antibody, V domains shown, GC1008 IgG4 variant) VH: QVQLVQSGAEVKKPGSSVKVSCKASGYTFSSTVISWVRQAPGQGLEWMGGVIPIVDIANYAQRFKGRVTITADESTSTTYMELSSLRSEDTAVYYCASTLGLVLDAMDYWGQGTLVTVSS VL: ETVLTQSPGTLSLSPGERATLSCRASQSLGSSYLAWYQQKPGQAPRLLIYGASSRAPGIPDRFSGSGSGTDFTLTISRLEPEDFAVYYCQQYADSPITFGQGTRLEIK
1.3	1.3	1.2	N32S (antibody, V domains shown, GC1008 IgG4 variant) VH: QVQLVQSGAEVKKPGSSVKVSCKASGYTFSSSVISWVRQAPGQGLEWMGGVIPIVDIANYAQRFKGRVTITADESTSTTYMELSSLRSEDTAVYYCASTLGLVLDAMDYWGQGTLVTVSS VL: ETVLTQSPGTLSLSPGERATLSCRASQSLGSSYLAWYQQKPGQAPRLLIYGASSRAPGIPDRFSGSGSGTDFTLTISRLEPEDFAVYYCQQYADSPITFGQGTRLEIK
0.8	0.8	0.7	N32Q (antibody, V domains shown, GC1008 IgG4 variant) VH: QVQLVQSGAEVKKPGSSVKVSCKASGYTFSSQVISWVRQAPGQGLEWMGGVIPIVDIANYAQRFKGRVTITADESTSTTYMELSSLRSEDTAVYYCASTLGLVLDAMDYWGQGTLVTVSS VL: ETVLTQSPGTLSLSPGERATLSCRASQSLGSSYLAWYQQKPGQAPRLLIYGASSRAPGIPDRFSGSGSGTDFTLTISRLEPEDFAVYYCQQYADSPITFGQGTRLEIK
1.9	1.2	1.1	N32W (antibody, V domains shown, GC1008 IgG4 variant) VH: QVQLVQSGAEVKKPGSSVKVSCKASGYTFSSWVISWVRQAPGQGLEWMGGVIPIVDIANYAQRFKGRVTITADESTSTTYMELSSLRSEDTAVYYCASTLGLVLDAMDYWGQGTLVTVSS VL: ETVLTQSPGTLSLSPGERATLSCRASQSLGSSYLAWYQQKPGQAPRLLIYGASSRAPGIPDRFSGSGSGTDFTLTISRLEPEDFAVYYCQQYADSPITFGQGTRLEIK
2	1.1	1.4	N32P (antibody, V domains shown, GC1008 IgG4 variant) VH: QVQLVQSGAEVKKPGSSVKVSCKASGYTFSSPVISWVRQAPGQGLEWMGGVIPIVDIANYAQRFKGRVTITADESTSTTYMELSSLRSEDTAVYYCASTLGLVLDAMDYWGQGTLVTVSS VL: ETVLTQSPGTLSLSPGERATLSCRASQSLGSSYLAWYQQKPGQAPRLLIYGASSRAPGIPDRFSGSGSGTDFTLTISRLEPEDFAVYYCQQYADSPITFGQGTRLEIK
